Data: paper PMC9834252 (2023)

Target: UbcH7-Ub (Homo sapiens, UniProt P68036)
Assay: ITC

Sequence of UbcH7-Ub (P68036 whole entry): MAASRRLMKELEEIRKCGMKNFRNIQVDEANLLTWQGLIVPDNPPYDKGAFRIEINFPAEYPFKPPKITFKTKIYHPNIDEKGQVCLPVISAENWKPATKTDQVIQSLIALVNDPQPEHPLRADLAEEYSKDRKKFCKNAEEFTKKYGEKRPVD

- Kd: 5.3 µM
B1: HOIL-1 (protein)
chain: MDEKTKKAEEMALSLTRAVAGGDEQVAMKCAIWLAEQRVPLSVQLKPEVSPTQDIRLWVSVEDAQMHTVTIWLTVRPDMTVASLKDMVFLDYGFPPVLQQWVIGQRLARDQETLHSHGVRQNGDSAYLYLLSARNTSLNPQELQRERQLRMLEDLGFKDLTLQPRGPLEPGPPKPGVPQEPGRGQPDAVPEPPPVGWQCPGCTFINKPTRPGCEMCCRARPEAYQVPASYQPDEEERARLAGEEEALRQYQQRKQQQQEGNYLQHVQLDQRSLVLNTEPAECPVCYSVLAPGEAVVLRECLHTFCRECLQGTIRNSQEAEVSCPFIDNTYSCSGKLLEREIKALLTPEDYQRFLDLGISIAENRSAFSYHCKTPDCKGWCFFEDDVNEFTCPVCFHVNCLLCKAIHEQMNCKEYQEDLALRAQNDVAARQTTEMLKVMLQQGEAMRCPQCQIVVQKKDGCDWIRCTVCHTEICWVTKGPRWGPGGPGDTSGGCRCRVNGIPCHPSCQNCH
